Assay [1] concerns the target T1, binding between SEMG2 and CD27 (Homo sapiens, UniProt Q02383).
T1 sequence (Q02383 24-582): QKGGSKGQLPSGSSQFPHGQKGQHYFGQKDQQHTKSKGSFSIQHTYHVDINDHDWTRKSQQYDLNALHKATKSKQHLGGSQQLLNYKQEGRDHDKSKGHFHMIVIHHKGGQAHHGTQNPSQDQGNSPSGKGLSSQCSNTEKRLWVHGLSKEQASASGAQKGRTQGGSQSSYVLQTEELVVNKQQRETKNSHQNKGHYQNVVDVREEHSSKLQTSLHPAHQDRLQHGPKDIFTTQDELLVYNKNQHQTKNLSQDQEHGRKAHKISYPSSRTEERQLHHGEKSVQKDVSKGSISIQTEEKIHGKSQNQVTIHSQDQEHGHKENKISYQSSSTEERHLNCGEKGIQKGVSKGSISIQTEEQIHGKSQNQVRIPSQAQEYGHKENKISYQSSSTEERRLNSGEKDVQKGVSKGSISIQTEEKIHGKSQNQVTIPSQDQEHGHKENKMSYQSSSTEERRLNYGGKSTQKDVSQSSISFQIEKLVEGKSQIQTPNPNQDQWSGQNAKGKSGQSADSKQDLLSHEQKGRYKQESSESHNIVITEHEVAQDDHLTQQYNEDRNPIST
Nature of the assay: Antibody blocking ELISA of SEMG2 binding to CD27-Fc. The following applies: for effect on the binding between SEMG2 and CD27: antibody 10 μg/mL; for blocking of binding between SEMG2 and CD27 with increasing antibody concentration: wide range of concentration. The text has this:
Because SEMG2 (497-509) sequence fragment is the key epitope of SEMG2 binding to CD27, and has a relatively short sequence, so SEMG2 (497-509) was used as an immunogen to prepare antibodies, which is theoretically easier to obtain functional antibody molecules with the function of blocking the binding between SEMG2 and CD27 than using full-length SEMG2 to prepare antibodies. For direct comparison, the differences in effective concentration of producing antibody by the two methods were verified using ELISA in the examples. Antibodies produced with SEMG2 (497-509) as immunogen and antibodies produced with full-length SEMG2 were added into the enzyme-linked immunosorbent assay (ELISA) reaction system at different concentrations (10^-2, 10^-1, 10^0, 10^1, 10^2, 10^3, 10^4 μg/mL), and the ELISA binding values were measured. The specific steps of enzyme-linked immunosorbent assay are as follows: (1) Dissolve SEMG2 protein antigen with 50 mM carbonate coating buffer (pH 9.6) to make the antigen concentration 10 μg/mL, and add into 96-well ELISA plate (purchased from Corning) at 100 μL/well, place at 4° C. overnight. (2) After discarding the coating solution on the next day, wash with PBST for three times, add 150 μL of 1% BSA to each well, and block for 2 hours at 37° C. […] (4) After washing for 5 times with PBST, add 100 of diluted HRP-labeled anti-human Fe secondary antibody, and incubate at 37° C. for 1 hour. (5) After washing with PBST for 5 times, 20 min after developing with chromogenic agent, the A450 absorption value was read using the microplate reader.
The SEMG2 (497-509) sequence was used to synthesize a polypeptide and coupled to a VLP carrier for immunization; HEK293 cells were used to express the full-length SEMG2 protein, and the purity was tested to reach 92%, and the binding activity of SEMG2 protein to CD27 was verified by ELISA. The protein and polypeptide antigens were used to immunize 10 mice respectively, and multiple immunizations were performed to enhance the effect: (1) The first immunization, 50 μg/mice of antigen, multiple subcutaneous injections together with Freund's complete adjuvant, with an interval of 3 weeks; (2) the second immunization; the same dosage and route as above, with incomplete Freund's adjuvant, and with an interval of 3 weeks; (3) the third immunization, the same dosage as above, without adjuvant, intraperitoneal injection with an interval of 3 weeks; (4) the booster immunization, the dose is 50 μg, intraperitoneal injection. 3 days after the last injection, blood was collected to measure its titer and the immune effect, and mice with higher titers were selected for hybridoma fusion screening. After subcloning, the binding of the monoclonal antibodies to the target antigens was detected by ELISA, and the function of different monoclonal antibodies in blocking the binding between SEMG2 and CD27 was measured by ELISA.
First, SEMG2(497-509) epitope-specific antibodies (for example, MM02, MM05) were compared with other epitope-specific antibodies (for example, HPA042767) for their function in blocking binding between SEMG2 and CD27 at different concentration ranges. […] The blocking function of different antibodies (irrelative mouse IgG, MM02, MM05, HPA042767) on binding between SEMG2 and CD27 was analyzed by the ELISA experiment as described in Example 11.
Further, the effects of different antibodies on the binding between SEMG2 and CD27 were compared under the condition of the same antibody concentration. In the ELISA, the same concentration (10 μg/mL) of antibody was used, and the strength of the binding between SEMG2 and CD27 was measured. […]

In assay [2] the test system is human malignant melanoma A375 cells. Nature of the assay: Xenograft model of PBMC-HIS model in human malignant melanoma A375 cells. It counts as in vivo, mouse. Particulars: NPSG mice with PBMC and A375, 5 mg/kg intraperitoneally three times a week. On the procedure: 30 male NPSG mouse models aged 6-8 week were weighed. A375 cells (with confirmed endogenous expression of SEMG2) were cultured in vitro to obtain 1.8×10^8 cells. After 30 mice were inoculated with PBMC, A375 tumor cells were inoculated on the 3rd day. After that, the proportion of hCD45+ cells in mouse blood and the body weight were measured once a week. After inoculation, tumor volume was measured once a week, and the proportion of hCD45+ cells in mouse blood was measured when the average tumor volume reached about 40-80 mm^3. Mice were grouped randomly based on tumor volume and the proportion of hCD45+ cells in mouse blood, and the administration was started immediately. The date began the administration was considered day 0. […] After the tumor growth, the body weight and tumor volume were measured 3 times a week, and the relative count of hCD45+ cells in mouse blood was monitored by flow cytometry 3 times a week. When the tumor volume reached the end point, blood was collected and the same indexed were detected, and the experiment was ended. […] Measurement of tumor volume: after inoculation and before grouping, when tumors were visible, the tumor volume of experimental animals was measured once a week. After inoculation and grouping, the tumor volume of animals in the experiment was measured twice a week. The tumor volume was measured by a bidirectional measurement method. […]
(Xenograft models place foreign cells or tissue in a host animal.)

B1: MM02: mouse monoclonal antibody against SEMG2(497-509), mIgG2b kappa, VH SEQ ID NO:35, VL SEQ ID NO:42 (antibody, V domains shown)
VH: QIQLVQSGPEVKKPGETVRISCKASGYTLTTAGIQWVQKMPGKGLKWIGWINTHSGVPEYAEDFKGRFAFFLETSASTAYLQISNLKNEDTATYFCARLGLLGYWGQGTTLTVSS
VL: DILLTQSPAILSVSPGERVSFSCRASQSIGTTIHWYQQRTNGSPRLLIKYASESISGIPSRFSGSGSGTDFTLSINSVESEDIADYYCQQSNSWPWTFGGGTKLEIKRA
modifications: UNSURE (1)..(115) VH; UNSURE (1)..(109) VL
For B1, in assay [1], the “effect on the binding between SEMG2 and CD27” value was “significantly reduced the binding”; the “blocking of binding between SEMG2 and CD27 with increasing antibody concentration” value is “gradually decreased”.

B2: MM05: mouse monoclonal antibody against SEMG2(497-509), mIgG1 kappa, VH SEQ ID NO:36, VL SEQ ID NO:43 (antibody, V domains shown)
VH: QVQLQQPGAELVRPGASVKLSCEASGYTFTSYWMNWVKQRPGQGLEWIGMIDPSDSETHYNQMFKDKATLTVDKSSSTAYMQLSSLTSEDSAVYYCARYLGGKEGSFDYWGQGTTLTVSS
VL: DIVMSQSPSSLAVSAGEKVTMSCKSSQSLLNSRTRKNYLAWYQQKPGQSPKLLIYWASTRESGVPDRFTGSGSGTDFTLTISSVQAEDLAVYYCKQSYSLPWTFGGGTKLEIKRA
modifications: UNSURE (1)..(120) VH; UNSURE (1)..(115) VL
Turning to B2, the “growth of tumor in mice” value in assay [2] is listed as “significantly inhibited the growth of tumor”. Besides, in assay [1], the “effect on the binding between SEMG2 and CD27” value is “significantly reduced the binding”; the “blocking of binding between SEMG2 and CD27 with increasing antibody concentration” value is listed as “gradually decreased”.

The values above are taken from US20230080534A1, “SEMG2 ANTIBODY AND USE THEREOF” (SHANGHAI BIOTROY BIOTECHNIQUE CO., LTD., priority 2020, published 2023).
